Assay [1] concerns the target T1, WT1 (modified form of the WT1 peptide) peptide on HLA-A*24:02 (human).
T1 peptide: CYTWNQMNL
Nature of the assay: killing.

The target of assay [2] is T2, LMP2 (Epstein-Barr virus latent membrane protein 2) peptide on HLA-A*24:02 (human).
T2 peptide: IYVLVMLVL
Briefly: multimer staining.

B1: TCR of clone WT1#3-3 (TCR)
alpha TRAV12-1*01 TRAJ9*01 CDR3: CVVRGGGFKTIF
beta TRBV20-1*01 TRBJ2-6*01 CDR3: CSARAGTGGANVLTF
For the molecule B1, in assay [1], the binding result is reported as “recognises”.

B2: TCR of clone LMP2#1 (TCR)
alpha TRAV26-1*01 TRAJ34*01 CDR3: CIVTRFYTDKLIF
beta TRBV14*02 TRBJ2-1*01 CDR3: CASSSPGSRPYNEQFF
As for B2, in assay [2], the binding result was “recognises”.
